From article PMC4268634

Key:
Experiment in all cases: SPR
[1] = target: Z_(VEGFR2_40)-(S4G)4-ABD035-(S4G)4-Z_(VEGFR2_40)
[2] = target: Z_(VEGFR2_40)-(S4G)4-ABD035-(S4G)4-Z_(VEGFR2_22)
[3] = target: Z_(VEGFR2_22)-(S4G)4-ABD035-(S4G)4-Z_(VEGFR2_40)

koff [1]: 0.00079 s⁻¹
koff [2]: 0.00018 s⁻¹
koff [3]: 0.00014 s⁻¹
Substance: murine VEGFR2 (Sino Biological) (from UniProt P35918 20-762) (receptor)
